Measurements from paper PMC12416549 (2024).

T1: TNFR1 (Homo sapiens, UniProt P19438)
T1 chain: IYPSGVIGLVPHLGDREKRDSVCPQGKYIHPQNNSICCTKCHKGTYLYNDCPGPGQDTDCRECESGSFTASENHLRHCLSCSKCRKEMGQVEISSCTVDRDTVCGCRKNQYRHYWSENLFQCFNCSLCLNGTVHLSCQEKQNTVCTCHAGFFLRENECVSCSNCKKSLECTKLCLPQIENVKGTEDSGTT


Biological target: T1, TNFR1
Test: yeast display SC50

| Binder | apparent Kd (screen) [nM] |
| --- | --- |
| R21W (designed binder) MTLQELLREEALRRAEAEAFWYALELLAEKFPEQKEYLLDLAEEIESQIRSLSGVDVEDVRKFLDKEWAWVKELLAEHPAELAEVEAARAARLAELRAEVEAKVAA | 0.49 |
| A102G (designed binder) MTLQELLREEALRRAEAEAFRYALELLAEKFPEQKEYLLDLAEEIESQIRSLSGVDVEDVRKFLDKEWAWVKELLAEHPAELAEVEAARAARLAELRAEVEGKVAA | 0.653 |
| L6A (designed binder) MTLQEALREEALRRAEAEAFRYALELLAEKFPEQKEYLLDLAEEIESQIRSLSGVDVEDVRKFLDKEWAWVKELLAEHPAELAEVEAARAARLAELRAEVEAKVAA | 1.54 |
| E18S (designed binder) MTLQELLREEALRRAEASAFRYALELLAEKFPEQKEYLLDLAEEIESQIRSLSGVDVEDVRKFLDKEWAWVKELLAEHPAELAEVEAARAARLAELRAEVEAKVAA | 0.405 |
| E10P (designed binder) MTLQELLREPALRRAEAEAFRYALELLAEKFPEQKEYLLDLAEEIESQIRSLSGVDVEDVRKFLDKEWAWVKELLAEHPAELAEVEAARAARLAELRAEVEAKVAA | 12.5 |
| V71K (designed binder) MTLQELLREEALRRAEAEAFRYALELLAEKFPEQKEYLLDLAEEIESQIRSLSGVDVEDVRKFLDKEWAWKKELLAEHPAELAEVEAARAARLAELRAEVEAKVAA | 12.5 |
| Q34S (designed binder) MTLQELLREEALRRAEAEAFRYALELLAEKFPESKEYLLDLAEEIESQIRSLSGVDVEDVRKFLDKEWAWVKELLAEHPAELAEVEAARAARLAELRAEVEAKVAA | 0.49 |
| S51F (designed binder) MTLQELLREEALRRAEAEAFRYALELLAEKFPEQKEYLLDLAEEIESQIRFLSGVDVEDVRKFLDKEWAWVKELLAEHPAELAEVEAARAARLAELRAEVEAKVAA | 0.368 |
| E5R (designed binder) MTLQRLLREEALRRAEAEAFRYALELLAEKFPEQKEYLLDLAEEIESQIRSLSGVDVEDVRKFLDKEWAWVKELLAEHPAELAEVEAARAARLAELRAEVEAKVAA | 0.49 |
| F63V (designed binder) MTLQELLREEALRRAEAEAFRYALELLAEKFPEQKEYLLDLAEEIESQIRSLSGVDVEDVRKVLDKEWAWVKELLAEHPAELAEVEAARAARLAELRAEVEAKVAA | 1.27 |
| V57S (designed binder) MTLQELLREEALRRAEAEAFRYALELLAEKFPEQKEYLLDLAEEIESQIRSLSGVDSEDVRKFLDKEWAWVKELLAEHPAELAEVEAARAARLAELRAEVEAKVAA | 0.653 |
| K35N (designed binder) MTLQELLREEALRRAEAEAFRYALELLAEKFPEQNEYLLDLAEEIESQIRSLSGVDVEDVRKFLDKEWAWVKELLAEHPAELAEVEAARAARLAELRAEVEAKVAA | 0.405 |
| E44Q (designed binder) MTLQELLREEALRRAEAEAFRYALELLAEKFPEQKEYLLDLAEQIESQIRSLSGVDVEDVRKFLDKEWAWVKELLAEHPAELAEVEAARAARLAELRAEVEAKVAA | 9.41 |
| K72F (designed binder) MTLQELLREEALRRAEAEAFRYALELLAEKFPEQKEYLLDLAEEIESQIRSLSGVDVEDVRKFLDKEWAWVFELLAEHPAELAEVEAARAARLAELRAEVEAKVAA | 0.593 |
| A19G (designed binder) MTLQELLREEALRRAEAEGFRYALELLAEKFPEQKEYLLDLAEEIESQIRSLSGVDVEDVRKFLDKEWAWVKELLAEHPAELAEVEAARAARLAELRAEVEAKVAA | 0.593 |
| L52C (designed binder) MTLQELLREEALRRAEAEAFRYALELLAEKFPEQKEYLLDLAEEIESQIRSCSGVDVEDVRKFLDKEWAWVKELLAEHPAELAEVEAARAARLAELRAEVEAKVAA | 2.48 |
| A23N (designed binder) MTLQELLREEALRRAEAEAFRYNLELLAEKFPEQKEYLLDLAEEIESQIRSLSGVDVEDVRKFLDKEWAWVKELLAEHPAELAEVEAARAARLAELRAEVEAKVAA | 0.405 |
| Q34M (designed binder) MTLQELLREEALRRAEAEAFRYALELLAEKFPEMKEYLLDLAEEIESQIRSLSGVDVEDVRKFLDKEWAWVKELLAEHPAELAEVEAARAARLAELRAEVEAKVAA | 2.73 |
| V57N (designed binder) MTLQELLREEALRRAEAEAFRYALELLAEKFPEQKEYLLDLAEEIESQIRSLSGVDNEDVRKFLDKEWAWVKELLAEHPAELAEVEAARAARLAELRAEVEAKVAA | 1.54 |
| E18L (designed binder) MTLQELLREEALRRAEALAFRYALELLAEKFPEQKEYLLDLAEEIESQIRSLSGVDVEDVRKFLDKEWAWVKELLAEHPAELAEVEAARAARLAELRAEVEAKVAA | 0.539 |
| S51R (designed binder) MTLQELLREEALRRAEAEAFRYALELLAEKFPEQKEYLLDLAEEIESQIRRLSGVDVEDVRKFLDKEWAWVKELLAEHPAELAEVEAARAARLAELRAEVEAKVAA | 1.05 |
| E43Y (designed binder) MTLQELLREEALRRAEAEAFRYALELLAEKFPEQKEYLLDLAYEIESQIRSLSGVDVEDVRKFLDKEWAWVKELLAEHPAELAEVEAARAARLAELRAEVEAKVAA | 0.142 |
| K35L (designed binder) MTLQELLREEALRRAEAEAFRYALELLAEKFPEQLEYLLDLAEEIESQIRSLSGVDVEDVRKFLDKEWAWVKELLAEHPAELAEVEAARAARLAELRAEVEAKVAA | 0.405 |
| A87Y (designed binder) MTLQELLREEALRRAEAEAFRYALELLAEKFPEQKEYLLDLAEEIESQIRSLSGVDVEDVRKFLDKEWAWVKELLAEHPAELAEVEYARAARLAELRAEVEAKVAA | 0.79 |
| E46D (designed binder) MTLQELLREEALRRAEAEAFRYALELLAEKFPEQKEYLLDLAEEIDSQIRSLSGVDVEDVRKFLDKEWAWVKELLAEHPAELAEVEAARAARLAELRAEVEAKVAA | 0.539 |
